Key:
Assay in all cases: SPR
[1] = biological target: Syrian hamster FcγRIII, soluble ectodomain (Syrian hamster (Mesocricetus auratus))
[2] = biological target: Syrian hamster FcγRIIb, soluble ectodomain (Syrian hamster (Mesocricetus auratus))
[3] = biological target: Syrian hamster FcγRIV, soluble ectodomain (Syrian hamster (Mesocricetus auratus))
[4] = biological target: Syrian hamster FcγRI, soluble ectodomain (Syrian hamster (Mesocricetus auratus))

Row | Substance | Kd [1] | Kd [2] | Kd [3] | Kd [4]
1 | Hamster IgG1 | 35.5 nM | 56.2 nM | > 1000 nM | > 1000 nM
2 | Hamster IgG2a | 702 nM | 1030 nM | 17.1 nM | 496 nM
3 | Mouse IgG1 | 78.1 nM | 143 nM | > 1000 nM | > 1000 nM
4 | Mouse IgG2a | 572 nM | 1140 nM | 14.7 nM | 338 nM
5 | human IgG1 Fc domain variant GAALIE (from UniProt P01857) | 233 nM | 328 nM | 9.52 nM | > 1000 nM
6 | human IgG1 Fc domain variant V11 (from UniProt P01857) | 260 nM | 345 nM | > 1000 nM | > 1000 nM
7 | wild-type human IgG1 (from UniProt P01857) | > 1000 nM | > 1000 nM | 102 nM | 737 nM

Reference: publication PMC8168397
